The data set deals with the molecule itself. Kind of data set: SDS-PAGE + SEC.

B1: Rat artemin (113 amino acids) (ligand, UniProt Q6AYE8 112-224, looked up)
chain: AGTRSSRARATDARGCRLRSQLVPVSALGLGHSSDELIRFRFCSGSCRRARSPHDLSLASLLDAGALRSPPGSRPISQPCCRPTRYEAVSFMDVNSTWRTVDHLSATACGCLG
Turning to B1, the “stoichiometry N” value worked out at 2.

By stoichiometry N is commonly meant the number of molecules, sites or subunits per partner or assembly.

Values taken from article PMC3936608 (Pain, 2013).
